According to the DeepSol protein solubility set:

test: soluble on expression in E. coli; label from the status in PepcDB or PDB records

Sequence | soluble on expression in E. coli
MSLTNNSETFNVLHASDFHIQLDYKLGAEGNCTLVPCGTSSSYSKDAPGKTYNFTDYYKSFNSDVSGNDISFYPDSHYDENAKFSKGDYYDFPQYFGWSFNKAPATSFGAYLSDAPYLLVNNSIVEMKKLHQEKNFESIIFTGDSFSHNGELANPDELKFSEAAIFNLINHYLNGVQVFPALGNHDTMFRYAEVAPRIYVSNASYYWNEDYVTDLWVNNGWFDKKDADAIKTHYTGYSFTTKRGLKVIGMNSNFYYGDNLWSYGETTTKPDKFGIWKFLIDELVDSESHGQRVWIMAHIPSNNYDVLPIQSHIFAAIVKRFSPYTIANLFFGHTHRTQYSVYYSTNDTSKIEDALTVSWVNPSVTPYTNFNPGFRYYEVENESFNIRNSFSYYFDLNGTEGHHHHHH | soluble
MAHHHHHHMNNLTLGDSNICGTFNKLPFIESYYNRKGILLKSYSWLVKNAIGIIVLVHGLSAHLRLQYLKLNVNVVNNDYATLIDADNYYIYEDSWIEEFNKNGYSVYGIDLQGHGESDGLDKLPLHINNFDDYVYDIIDYMRRINNSIVLEKSMQKSTSNKYTIENREELLPMYLVGLSMGGNIVLRTLEILGKSNEINSNLNIKGCISLAGMISVRMVGSIDSIKYKYFYLPVMKIFSRYFPTFRPGKKKFKFEKYPFVNDLLFYDKYRFKGRITNNLAREILVALDNLHNNIDDIPKNIPILFIHSINDCLCWYEGTVSFYNKLQIDNKELYTLEDMDHVISMEPGNENVLKKILEWISNLYVQ | not soluble
MNNDNKRSAGGLGLVGDIGGTNARFALWRGQRLESIEVLACADYPRPELAVRDYLARIGESVANIDSVCLACAGPVGAADFRFTNNHWVINRAAFREELGLDHLLLVNDFSTMAWAASRLGADELVQVRAGSAQADRARLIIGPGTGLGVGSLLPLGGGRWEVLPCEGGHVDLPVTSPRDFALWQGLQARYGHVSAERALSGNGLLALYEISCALDGVAVRASSAAEVGALAMAGDAQADAVLEHFFLWLARVAGNAVLTVGALGGVYITGGIVPRFLERFIASGFAEAFASRGKTSGAYLQDVPVWVMTAEHPGLLGAGVALQQALDAEG | not soluble
MYPLNIDGEELYLRDLKINDLPNLLKWYNNIDDFSLATGVYKPITLKEILERYFKCQSSSKDFFAGIYIRKSGEMIGVLKGWLDCEKDLSAWINSIIIDPGFQRKGYGSKTVNLFIRHVKECCNVKRVYLSVAEENFKGMSFWKQQSFREVKKISKDRDSVSKCKSIVIMCREI | not soluble
MGSDKIHHHHHHMKITTKQVGARMREARKKKKYTLRYLANKIGLSSGSTISNWELGLNLPNKRYLKKIAKACDTTVDWLLYGDFDRFVRQLLKENFQNKQLLKPPFFTQLMGRLSEEQLSYHDSLKIMIQAQKLQQSFYAFPLTVEAPSHSQESISIYEPTTAEEQSDQSYYHPFILSELHELFTHSQNPELDYSLIIAFLPLLKVDQLTEPQKEVLLAIFKRMNSFKDQTLLNEFFVELQYLL | not soluble
DMNYTYTSIAAIDGNIKTFVAAPRVGYRWQYDGGRELRVFVGAMYQNVQQELSGDLKSLNLPPQLLGLVENLSPDAGFNVSQSADENWNSVLGFQYAFNKDWEILMEAGFGERETLFFSLGRRF | not soluble
MSLDFRSADFLRTHISDTMAFYHPRCIDSAGGFFHYFRDDGSIYNATHRHLVSSTRFVFNYAMAYLQFGTAEYLDAVHHGLSYVRDVHRNPATGGYAWTLCDDRVEDDTNHCYGLAFVMLAYSCGLKVGIKQAREWMDETWCLLERHFWDAEYGLYKDEADAQWNFTRYRGQNANMHMCEAMLAAYEASGEQRYLERALVLADRITRRQAAKADGLVWEHYDMRWEVDWDYNRDNPKHLFRPWGFQPGHQTEWAKLLLILDRYIEVEWLVPVARSLFDVAVARSWDAVRGGLCYGFAPDGTICDDDKYFWVQAESLAAAALLATRSGDERYWQWYDRLWAYAWQHMVDHRYGAWYRLLDGDNRKYNDEKSPAGKTDYHTMGACHEVLNVVWTKSEGHHHHHH | soluble
MGPAQIWRLKFSNDKLTWEQECTFERSQYYDSIICACVYRFYHGAPPVVLFGTYSGRILQYELPPPTKFVRKSMKDVPKCGKPINLLINHGIYFIRQTGFNEIASITPFGLYILRENFHASKRLGKFGQFWLNRLQNRLLVKNPGSIDDFSAAEIRRLSIDSAQEQMRPRIGSTVSQLTFRYSDDDTLLLEKGGEKRRQTLGARDFQVSPRFYSRKIGKKIRFFLKFFREKLAGIENFRQIGKLAKMKISGKPANCQNFLPISNRGKLRKNFFFSENNDKF | not soluble
SQAPHKEHLYKLLVIGDLGVGKTSIIKRYVHQNFSSHYRATIGVDFALKVLHWDPETVVRLQLWDIAGQERFGNMTRVYYREAMGAFIVFDVTRPATFEAVAKWKNDLDSKLSLPNGKPVSVVLLANKCDQGKDVLMNNGLKMDQFCKEHGFVGWFETSAKENINIDEASRCLVKHILANECDLMESIEPDVVKPHLTSTKVASCSGCAKS | soluble
MNDEEKPCIENILSAAEELEKLGYEPVIIADASLRHEIDDKEQFRKLLEEGKFQQVPSGTSADHFILKMAEEEDAKILSNDVFRDYKDEFQDINSRRIPYTFREDKILIGTSGKPKKVKNILQKICNEALEHHHHHH | not soluble
MAHHHHHHMVVLKGGGTTYAVGNGRQMPWEEVPEGFKRRLAEQEEITPCVELRAIAQRCIEVEGFWAPNCVEATEQFHSCQAQHLAGCLPNWTHHNNNNINN | not soluble
MAEIVLTQSPGTQSLSPGERATLSCRASQSVGNNKLAWYQQRPGQAPRLLIYGASSRPSGVADRFSGSGSGTDFTLTISRLEPEDFAVYYCQQYGQSLSTFGQGTKVEVKLVPR | soluble
MGSDKIHHHHHHMSRRHYNLPPLTTLTAFEAAARHLSFKDAAKELSVTPGAVSHQVKALEGELGVALFRRKHRGVDLTVPGQTLYDTLAGSLTRISQSLQSIRDQSSAGVVTVGSTTAMAAMWLSPAVIRFWRDHPEININQVVRDRAFTTSAELDLYIWYGREKDQRLDQFPLYRDRLLPVAAPERAAELAGADLDVLASQRLIHLEGDDISWTKWHDWFRQLGYSGPVASGIRVNNYSIALQAARDGAGLTLGWERLISPLITQGDLAIIGPHVLPAPERFFLVSKPDEELTPSARLLRDWIIEEASQITDEPC | not soluble
MGSDKIHHHHHHMNFLAHLHLADNSKTDLAANLAGDFAKGNIADHPKALQQGIWLHRQIDSLTDSHELTKELKAAFPKTLQRAAPILIDLAFDHMLAKYWEEYHHLSLPDFAQQAYLALSSAEQLPVNLSDLIIRMRQENWLIAYESREGLNQTIKAVSKRVSKPEIFDGAIDTVKRMDTEIEIAFRTFYPQLMAYSRIWTRQTPPEFL | not soluble
MGHHHHHHGGHMSLSAYKTVVVGTDGSDSSMRAVDRAAQIAGADAKLIIASAYLPQHEDARAADILKDESYKVTGTAPIYEILHDAKERAHNAGAKNVEERPIVGAPVDALVNLADEEKADLLVVGNVGLSTIAGRLLGSVPANVSRRAKVDVLIVHTTEGGS | soluble
MGSDKIHHHHHHMEPIMRNPEDALLDSWHQNAQAWIDAVRHGAIESRRQVTDQAILLAILGRQPERVLDLGCGEGWLLRALADRGIEAVGVDGDRTLVDAARAAGAGEVHLASYAQLAEAKVPVGKDYDLICANFALLHQDIIELLSAMRTLLVPGGALVIQTLHPWSVADGDYQDGWREESFAGFAGDWQPMPWYFRTLASWLNALDMAGLRLVSLQEPQHPQSAVPQSLLMVAERH | not soluble
KNRIGTKALNFTYTLASGAQGSLYQLKAEYLLLFINNPGCQACTETIEGLKNAPIINQLLQEKKLVLLSIYPDEELDEWKKHLSEFPNEWINGYDKKFTIKEEQVYDLKAIPTLYLLDKDKTVLLKDATAPAIEAYLMQHQ | not soluble
MTELRVYLLIEALQPQFAACLSSPTRARGYPAFAGQSSLIIEVSPALAIHRVTDLALKSAPAMEPGILYTERQFGLLELHADSLEKLNAAGQAILDGMGAKPEDQLKPQILYHDIIENLSDQHAIILNRSREASILVPGVALLIYEMAPALFACVAANEAERAVPRAVINDVQMMGATGRVFMSGSLAEMRLARETITAKLESIPGRQ | not soluble
